Earlier results in patent publication US5977174A, “Cholinergic compositions and uses thereof” (Neuromedica, Inc., priority 1997, dated 1999).

B1: C84S tPA: tPA variants in which a cysteine at position 84 of the growth factor domain of native tPA is replaced by serine (protein, UniProt P00750 36-562, looked up, variant C84S)
Tissue-type plasminogen …: SYQVICRDEKTQMIYQQHQSWLRPVLRSNRVEYCWCNSGRAQCHSVPVKSCSEPRCFNGGTCQQALYFSDFVCQCPEGFAGKCSEIDTRATCYEDQGISYRGTWSTAESGAECTNWNSSALAQKPYSGRRPDAIRLGLGNHNYCRNPDRDSKPWCYVFKAGKYSSEFCSTPACSEGNSDCYFGNGSAYRGTHSLTESGASCLPWNSMILIGKVYTAQNPSAQALGLGKHNYCRNPDGDAKPWCHVLKNRRLTWEYCDVPSCSTCGLRQYSQPQFRIKGGLFADIASHPWQAAIFAKHRRSPGERFLCGGILISSCWILSAAHCFQERFPPHHLTVILGRTYRVVPGEEEQKFEVEKYIVHKEFDDDTYDNDIALLQLKSDSSRCAQESSVVRTVCLPPADLQLPDWTECELSGYGKHEALSPFYSERLKEAHVRLYPSSRCTSQHLLNRTVTDNMLCAGDTRSGGPQANLHDACQGDSGGPLVCLNDGRMTLVGIISWGLGCGQKDVPGVYTKVTNYLDWIRDNMRP
- in vivo half life vs native tPA: longer in vivo half life than native tPA
